The supplement of paper PMC7125110
± gives the standard error. For some of these results: This sample holds only a part of the variants without activity.

B1: glmS ribozyme (parent)
chain: AUAAAAGCGCCAGAACUACAGAAAUGUAGUUGACGAGGAGGAGGUUUAUCGAAUUUUCGGCGGAUGCCUCCAAA

Assays:
Settings in all cases: with glucosamine-6-phosphate
glucosamine-6-phosphate [1] = variants of: B1; assay: kcat; higher = faster cleavage; RNA array
How it was run: (§1)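 Ribozyme variants carrying barcodes were transcribed in situ on sequenced MiSeq chips by E. coli RNA polymerase and tracked at 37 °C with a hybridised Cy3 probe. They were exposed to 40 μM to 10 mM glucosamine-6-phosphate in HEPES/KCl/Mg(OAc)2 buffer. kobs came from exponential decay fits of normalised per-tile medians, and kcat and KM from weighted Michaelis–Menten fits.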

glucosamine-6-phosphate [2] = variants of: B1; assay: KM; higher = weaker cofactor use; RNA array
How it was run: as §1

glucosamine-6-phosphate [3] = variants of: B1; assay: self-cleavage kobs at 40 uM GlcN6P; higher = faster cleavage; RNA array
How it was run: as §1

glucosamine-6-phosphate [4] = variants of: B1; assay: self-cleavage kobs at 160 uM GlcN6P; higher = faster cleavage; RNA array
How it was run: as §1

glucosamine-6-phosphate [5] = variants of: B1; assay: self-cleavage kobs at 640 uM GlcN6P; higher = faster cleavage; RNA array
How it was run: as §1

glucosamine-6-phosphate [6] = variants of: B1; assay: self-cleavage kobs at 2500 uM GlcN6P; higher = faster cleavage; RNA array
How it was run: as §1

glucosamine-6-phosphate [7] = variants of: B1; assay: self-cleavage kobs at 10000 uM GlcN6P; higher = faster cleavage; RNA array
How it was run: as §1

Variant	kcat (glucosamine-6-phosphate [1]) [s⁻¹]	KM (glucosamine-6-phosphate [2]) [µM]	self-cleavage kobs at 40 uM GlcN6P (glucosamine-6-phosphate [3]) [s⁻¹]	self-cleavage kobs at 160 uM GlcN6P (glucosamine-6-phosphate [4]) [s⁻¹]	self-cleavage kobs at 640 uM GlcN6P (glucosamine-6-phosphate [5]) [s⁻¹]	self-cleavage kobs at 2500 uM GlcN6P (glucosamine-6-phosphate [6]) [s⁻¹]	self-cleavage kobs at 10000 uM GlcN6P (glucosamine-6-phosphate [7]) [s⁻¹]
AUAAAAGCGCCAGAACUACAGAAAUGUAGUUGACGAGGAGGAGGGUUAUCGACUUUUCGGCGGAUGCCUCCAAA	0.00249 ± 0.00031	1820 ± 370	5.63e-05 ± 8.5e-06	0.000176 ± 3.1e-05	0.000627 ± 0.00012	0.00179 ± 0.00022	0.00197 ± 0.00021
AUAAAAGCGCCAUAACUACAGAAAUGUAGUUGACGAGGAGGAGGUUUAUCGAAUUUUCGGCGGAGGGCUCCAAA	7.46e-05 ± 2.9e-06	808 ± 170	–	–	–	6.05e-05 ± 2.3e-05	6.81e-05 ± 1.5e-05
AUAAAAGCGCCAGAAGUACAGAAAUGUAGUUGACGAGGAGGAGGUUUAUCGAAUUUUCGGUGGAUGUCUCCAAA	< 1e-05	–	< 1e-05	< 1e-05	–	–	< 1e-05
AUAAAAGCGCCAGAACUACAGAAAUGUAGUUGACGAGGAGGAGGUUUAUCGAACUUUCUGCGGAUGCCUCCAAA	4.57e-05 ± 2.2e-05	–	–	–	–	–	2.45e-05 ± 1.2e-05
AUAAAAGCGCUAGAUCUACAGAAAUGUAGUUGACGAGGAGGAGGUUUAUCGAAUUUUCGGCGGAUGCCUCCAAA	0.000594 ± 3.8e-05	1540 ± 230	–	4.54e-05 ± 1.7e-05	0.000178 ± 2.4e-05	0.000375 ± 5.4e-05	0.000511 ± 4.5e-05
AUAAAAGCUCCAGAACUACAGAAAUGUAGUUGACGAGGAGGAGGUUUAUCGAAUUUUCGGCGGAUGCCUCUAAA	< 1e-05	–	< 1e-05	< 1e-05	< 1e-05	–	< 1e-05
AUAAAAGCGCCAGAACUACAGAAAUGUAGUUGACGAGGAGGAGGUUUAUCGAAUUUUCGGCGGAUAACUCUAAA	0.00289 ± 0.0012	–	6.11e-05 ± 1.7e-05	–	0.000304 ± 6.2e-05	0.00101 ± 0.00048	0.002 ± 0.00029
AUAAAAGCGCCAGAACUACAGAAAUGUAGUUGACGAGGAGGAGGGUUGUCGAAUUUUCGGCGGAUGCCUCCAAA	2.93e-05 ± 2.6e-06	2270 ± 860	–	–	–	–	–
AUAAAAGCGCCAGAAUUACAGAAAUGUAGUUGACGAGGAGGAGGUUUAUCGAAUUUUGGGCGGAUGCCUCCAAA	0.000176 ± 1.3e-05	1730 ± 350	–	–	4.29e-05 ± 9.1e-06	0.000117 ± 1.6e-05	0.000146 ± 1.3e-05
